Read-outs that look alike come from different tables or passages of the source.
T1: human IL4 (human, UniProt P05112)
T1 chain: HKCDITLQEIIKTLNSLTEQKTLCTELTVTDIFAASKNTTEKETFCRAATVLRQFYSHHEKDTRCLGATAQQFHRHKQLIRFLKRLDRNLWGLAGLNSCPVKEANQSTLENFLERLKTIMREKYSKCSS


Tests used:
human IL4 [1] = molecular target: T1, human IL4; assay: SPR
human IL4 [2] = molecular target: T1, human IL4; assay: SPR

Row | Binder | Kd (human IL4 [1]) | Kd (human IL4 [2])
1 | sLC-Tandem-(anti-IL4xanti-IL13)-His8-PCL1-huIgG1 with Furin, IL4 arm (antibody) chain 1: not shown chain 2: DIQMTQSPASLSVSVGDTITLTCHASQNIDVWLSWFQQKPGNIPKLLIYKASNLHTGVPSRFSGSGSGTGFTLTISSLQPEDIATYYCQQAHSYPFTFGGGTKLEIKRTVAAPSVFIFPPSDEQLKSGTASVVCLLNNFYPREAKVQWKVDNALQSGNSQESVTEQDSKDSTYSLSSTLTLSKADYEKHKVYACEVTHQGLSSPVTKSFNRGEC | 1.53 pM | –
2 | sLC-Tandem-(anti-IL4xanti-IL13)-His8-PCL1-huIgG1 with Furin-KDEL, IL4 arm (antibody) chain 1: not shown chain 2: DIQMTQSPASLSVSVGDTITLTCHASQNIDVWLSWFQQKPGNIPKLLIYKASNLHTGVPSRFSGSGSGTGFTLTISSLQPEDIATYYCQQAHSYPFTFGGGTKLEIKRTVAAPSVFIFPPSDEQLKSGTASVVCLLNNFYPREAKVQWKVDNALQSGNSQESVTEQDSKDSTYSLSSTLTLSKADYEKHKVYACEVTHQGLSSPVTKSFNRGEC | 1.86 pM | –
3 | Tandem-(anti-IL4xanti-IL13)-huIgG1, IL4 arm (antibody) chain 1: not shown chain 2: DIQMTQSPASLSVSVGDTITLTCHASQNIDVWLSWFQQKPGNIPKLLIYKASNLHTGVPSRFSGSGSGTGFTLTISSLQPEDIATYYCQQAHSYPFTFGGGTKLEIKRTVAAPSVFIFPPSDEQLKSGTASVVCLLNNFYPREAKVQWKVDNALQSGNSQESVTEQDSKDSTYSLSSTLTLSKADYEKHKVYACEVTHQGLSSPVTKSFNRGEC | 2.32 pM | –
4 | sLC-Tandem-(anti-IL4xanti-IL13)-PCL2-huIgG1, IL4 arm (antibody) chain 1: not shown chain 2: DIQMTQSPASLSVSVGDTITLTCHASQNIDVWLSWFQQKPGNIPKLLIYKASNLHTGVPSRFSGSGSGTGFTLTISSLQPEDIATYYCQQAHSYPFTFGGGTKLEIKRTVAAPSVFIFPPSDEQLKSGTASVVCLLNNFYPREAKVQWKVDNALQSGNSQESVTEQDSKDSTYSLSSTLTLSKADYEKHKVYACEVTHQGLSSPVTKSFNRGEC | 1.05 pM | 1.33 pM

Second part, the binder after the results:

Row | Kd (human IL4 [1]) | Kd (human IL4 [2]) | Binder
5 | 2.29 pM | 2.75 pM | sLC-Tandem-(anti-IL4xanti-IL13)-ΔPCL1-huIgG1, IL4 arm (antibody) chain 1: not shown chain 2: DIQMTQSPASLSVSVGDTITLTCHASQNIDVWLSWFQQKPGNIPKLLIYKASNLHTGVPSRFSGSGSGTGFTLTISSLQPEDIATYYCQQAHSYPFTFGGGTKLEIKRTVAAPSVFIFPPSDEQLKSGTASVVCLLNNFYPREAKVQWKVDNALQSGNSQESVTEQDSKDSTYSLSSTLTLSKADYEKHKVYACEVTHQGLSSPVTKSFNRGEC
6 | 0.901 pM | 1.42 pM | sLC-Tandem-(anti-IL4xanti-IL13)-PCL1-huIgG1, IL4 arm (antibody) chain 1: not shown chain 2: DIQMTQSPASLSVSVGDTITLTCHASQNIDVWLSWFQQKPGNIPKLLIYKASNLHTGVPSRFSGSGSGTGFTLTISSLQPEDIATYYCQQAHSYPFTFGGGTKLEIKRTVAAPSVFIFPPSDEQLKSGTASVVCLLNNFYPREAKVQWKVDNALQSGNSQESVTEQDSKDSTYSLSSTLTLSKADYEKHKVYACEVTHQGLSSPVTKSFNRGEC

— patent publication US12723106 (dated 2026)
